# Measurements taken from IntAct's records for PubMed 22796944.
# B1: Transcription elongation factor SPT5 (Saccharomyces cerevisiae), P27692 (parent)
# chain: MSDNSDTNVSMQDHDQQFADPVVVPQSTDTKDENTSDKDTVDSGNVTTTESTERAESTSNIPPLDGEEKEAKSEPQQPEDNAETAATEQVSSSNGPATDDAQATLNTDSSEANEIVKKEEGSDERKRPREEDTKNSDGDTKDEGDNKDEDDDEDDDDDDDDEDDDDEAPTKRRRQERNRFLDIEAEVSDDEDEDEDEEDSELVREGFITHGDDEDDEASAPGARRDDRLHRQLDQDLNKTSEEDAQRLAKELRERYGRSSSKQYRAAAQDGYVPQRFLLPSVDTATIWGVRCRPGKEKELIRKLLKKKFNLDRAMGKKKLKILSIFQRDNYTGRIYIEAPKQSVIEKFCNGVPDIYISQKLLIPVQELPLLLKPNKSDDVALEEGSYVRIKRGIYKGDLAMVDQISENNLEVMLKIVPRLDYGKFDEIDPTTQQRKSRRPTFAHRAPPQLFNPTMALRLDQANLYKRDDRHFTYKNEDYIDGYLYKSFRIQHVETKNIQPTVEELARFGSKEGAVDLTSVSQSIKKAQAAKVTFQPGDRIEVLNGEQRGSKGIVTRTTKDIATIKLNGFTTPLEFPISTLRKIFEPGDHVTVINGEHQGDAGLVLMVEQGQVTFMSTQTSREVTITANNLSKSIDTTATSSEYALHDIVELSAKNVACIIQAGHDIFKVIDETGKVSTITKGSILSKINTARARVSSVDANGNEIKIGDTIVEKVGSRREGQVLYIQTQQIFVVSKKIVENAGVFVVNPSNVEAVASKDNMLSNKMDLSKMNPEIISKMGPPSSKTFQQPIQSRGGREVALGKTVRIRSAGYKGQLGIVKDVNGDKATVELHSKNKHITIDKHKLTYYNREGGEGITYDELVNRRGRVPQARMGPSYVSAPRNMATGGIAAGAAATSSGLSGGMTPGWSSFDGGKTPAVNAHGGSGGGGVSSWGGASTWGGQGNGGASAWGGAGGGASAWGGQGTGATSTWGGASAWGNKSSWGGASTWASGGESNGAMSTWGGTGDRSAYGGASTWGGNNNNKSTRDGGASAWGNQDDGNRSAWNNQGNKSNYGGNSTWGGH
# B2: Cell division control protein 73 (Saccharomyces cerevisiae), Q06697 (parent)
# chain: MANSLDRLREHLKNGDKLVLKNNEGQSTDDITKATMVETLSSDGSTQDSFPLNEETEIEIDGSLVQLRIIVHCWMNKDSSAADYLADCQNKQLTNVSFLQRTDLINWLSGNTESSQYLKAPGQKGETSDKVDIENKTLAGELSTVKSTTSASLENDSEVSDPVVVETMKHERILVDHNSALRGAKPINFGYLIKDAELKLVQSIKGSLRGSKLPPGHKGAHGRISKTNGSSGGPRKDPIILIPSAASSILTVANIKQFLLESKYVNPRNLPSVPNGLVNIEKNFERISRPIRFIIVDNTRMFTKPEYWDRVVAIFTTGHTWQFNNYQWNSPQELFQRCKGYYFHFAGDSVPQHVQQWNVEKVELDKNKRFKDVEVVRYFWHSLEKELISRGYR
# B3: Cell division control protein 73 (Saccharomyces cerevisiae), Q06697 (parent)
# chain: B2 chain
# partner: B1 chain
# Variants of: B1
# Details: with rtf1_yeast RTF1, P53064
# Sequence of rtf1_yeast RTF1, P53064 (P53064 whole entry): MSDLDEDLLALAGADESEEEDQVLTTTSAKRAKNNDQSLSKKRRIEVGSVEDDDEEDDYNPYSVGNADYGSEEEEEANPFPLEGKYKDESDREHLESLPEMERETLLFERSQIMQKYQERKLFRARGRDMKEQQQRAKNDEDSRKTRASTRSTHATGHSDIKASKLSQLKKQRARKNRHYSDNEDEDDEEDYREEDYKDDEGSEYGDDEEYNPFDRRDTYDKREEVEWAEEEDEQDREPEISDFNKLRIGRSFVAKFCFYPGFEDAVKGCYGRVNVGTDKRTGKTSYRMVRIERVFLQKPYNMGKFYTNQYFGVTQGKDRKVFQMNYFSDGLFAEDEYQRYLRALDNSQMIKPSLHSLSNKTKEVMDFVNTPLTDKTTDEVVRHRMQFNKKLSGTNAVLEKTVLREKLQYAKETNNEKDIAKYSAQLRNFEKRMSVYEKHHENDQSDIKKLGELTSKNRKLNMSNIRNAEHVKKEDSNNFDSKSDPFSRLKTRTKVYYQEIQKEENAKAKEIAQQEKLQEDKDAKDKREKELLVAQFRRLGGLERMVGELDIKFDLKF
row,Variant,effect of a mutation on the interaction
1,M1D,decreasing interaction

# Variants of: B2
# Details: with rpb1_yeast RPO21, P04050
# Sequence of rpb1_yeast RPO21, P04050 (P04050 whole entry): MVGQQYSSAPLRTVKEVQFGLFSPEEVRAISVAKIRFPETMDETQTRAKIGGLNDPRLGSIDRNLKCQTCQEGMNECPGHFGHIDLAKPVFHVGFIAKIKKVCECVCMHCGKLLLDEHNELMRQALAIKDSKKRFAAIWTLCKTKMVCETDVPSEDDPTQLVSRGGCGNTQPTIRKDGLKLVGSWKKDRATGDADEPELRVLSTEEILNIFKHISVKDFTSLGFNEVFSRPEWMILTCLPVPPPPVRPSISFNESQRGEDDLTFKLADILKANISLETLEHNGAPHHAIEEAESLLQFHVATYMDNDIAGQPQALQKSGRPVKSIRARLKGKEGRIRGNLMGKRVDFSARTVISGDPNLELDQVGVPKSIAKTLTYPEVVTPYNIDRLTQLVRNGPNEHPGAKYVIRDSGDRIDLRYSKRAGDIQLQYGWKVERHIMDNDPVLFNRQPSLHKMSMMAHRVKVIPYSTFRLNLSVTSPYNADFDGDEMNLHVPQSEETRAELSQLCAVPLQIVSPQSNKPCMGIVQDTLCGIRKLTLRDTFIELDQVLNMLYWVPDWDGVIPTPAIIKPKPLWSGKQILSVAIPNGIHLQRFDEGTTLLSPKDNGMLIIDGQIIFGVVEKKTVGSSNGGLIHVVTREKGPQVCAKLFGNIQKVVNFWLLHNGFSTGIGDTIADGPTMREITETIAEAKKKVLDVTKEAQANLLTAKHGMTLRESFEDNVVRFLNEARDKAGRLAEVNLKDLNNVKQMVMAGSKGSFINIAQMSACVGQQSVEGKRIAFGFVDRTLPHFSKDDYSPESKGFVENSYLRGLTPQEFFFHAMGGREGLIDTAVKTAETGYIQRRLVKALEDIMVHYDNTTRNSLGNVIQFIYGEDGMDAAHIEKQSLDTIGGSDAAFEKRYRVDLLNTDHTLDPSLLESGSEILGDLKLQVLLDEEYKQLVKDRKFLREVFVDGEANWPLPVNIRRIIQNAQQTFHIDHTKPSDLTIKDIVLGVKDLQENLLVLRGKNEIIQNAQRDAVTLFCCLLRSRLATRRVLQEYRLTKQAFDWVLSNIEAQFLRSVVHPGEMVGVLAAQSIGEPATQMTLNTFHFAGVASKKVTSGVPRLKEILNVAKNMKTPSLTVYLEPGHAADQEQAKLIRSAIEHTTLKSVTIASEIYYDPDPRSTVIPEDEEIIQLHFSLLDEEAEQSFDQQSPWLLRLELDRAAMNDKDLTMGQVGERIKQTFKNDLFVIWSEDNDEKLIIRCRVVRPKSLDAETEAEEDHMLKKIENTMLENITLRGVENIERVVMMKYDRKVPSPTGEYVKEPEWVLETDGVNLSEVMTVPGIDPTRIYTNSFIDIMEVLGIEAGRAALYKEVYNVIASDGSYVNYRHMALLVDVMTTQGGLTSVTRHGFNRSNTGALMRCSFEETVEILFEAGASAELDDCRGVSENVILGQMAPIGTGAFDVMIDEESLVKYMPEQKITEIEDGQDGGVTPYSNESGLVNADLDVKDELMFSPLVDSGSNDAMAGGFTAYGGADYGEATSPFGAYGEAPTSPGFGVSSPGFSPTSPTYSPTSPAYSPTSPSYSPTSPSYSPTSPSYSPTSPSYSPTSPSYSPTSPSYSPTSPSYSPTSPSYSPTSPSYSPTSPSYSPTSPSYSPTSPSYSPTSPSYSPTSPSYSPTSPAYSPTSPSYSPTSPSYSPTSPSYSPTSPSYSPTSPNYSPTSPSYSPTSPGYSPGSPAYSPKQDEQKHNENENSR
row,Variant,effect of a mutation on the interaction
1,MANSLDRLREHLKNGDKLVLKNNEGQSTDDITKATMVETLSSDGSTQDSFPLNEETEIEIDGSLVQLRIIVHCWMNKDSSAADYLADCQNKQLTNVSFLQRTDLINWLSGNTESSQYLKAPGQKGETSDKVDIENKTLAGELSTVKSTTSASLENDSEVSDPVVVETMKHERILVDHNSALRGAKPINFGYLIKDAELKLVQSIKGSLRGSKLPPGHKGAHGRISKTNGSSGGPRKDPIILIPSAASSILTVANIKQFLLESKYVNPRNLPSVPNGLVNIEKNFERISRPIRFIIVDNTRMFTKPEYWDRVVAIFTTGHTWQFNNYQWNSPQELFQRCKGYYFHFAGDSVPQHVQQANVEKVELDKNKRFKDVEVVRYFWHSLEKELISRGYR [W357A],disrupting interaction
2,MANSLDRLREHLKNGDKLVLKNNEGQSTDDITKATMVETLSSDGSTQDSFPLNEETEIEIDGSLVQLRIIVHCWMNKDSSAADYLADCQNKQLTNVSFLQRTDLINWLSGNTESSQYLKAPGQKGETSDKVDIENKTLAGELSTVKSTTSASLENDSEVSDPVVVETMKHERILVDHNSALRGAKPINFGYLIKDAELKLVQSIKGSLRGSKLPPGHKGAHGRISKTNGSSGGPRKDPIILIPSAASSILTVANIKQFLLESKYVNPRNLPSVPNGLVNIEKNFERISRPIRFIIVDNTRMFTKPEYWDRVVAIFTTGHTWQFNNYQWNSPQELFQRCKGYYFHFAGDSVPQHVQQWNVEKVELDKNKRFKDVEVVRYFAHSLEKELISRGYR [W380A],disrupting interaction

# Variants of: B3
# Details: with spt5_yeast SPT5, P27692
row,Variant,effect of a mutation on the interaction
1,MANSLDRLREHLKNGDKLVLKNNEGQSTDDITKATMVETLSSDGSTQDSFPLNEETEIEIDGSLVQLRIIVHCWMNKDSSAADYLADCQNKQLTNVSFLQRTDLINWLSGNTESSQYLKAPGQKGETSDKVDIENKTLAGELSTVKSTTSASLENDSEVSDPVVVETMKHERILVDHNSALRGAKPINFGYLIKDAELKLVQSIKGSLRGSKLPPGHKGAHGRISKTNGSSGGPRKDPIILIPSAASSILTVANIKQFLLESKYVNPRNLPSVPNGLVNIEKNFERISRPIRFIIVDNTRMFTKPEYWDRVVAIFTTGHTWQFNNYQWNSPQELFQRCKGYYFHFAGDSVPQHVQQWNVEKVELDKNKRFKDVEVVRYFAHSLEKELISRGYR [W380A],disrupting interaction
2,MANSLDRLREHLKNGDKLVLKNNEGQSTDDITKATMVETLSSDGSTQDSFPLNEETEIEIDGSLVQLRIIVHCWMNKDSSAADYLADCQNKQLTNVSFLQRTDLINWLSGNTESSQYLKAPGQKGETSDKVDIENKTLAGELSTVKSTTSASLENDSEVSDPVVVETMKHERILVDHNSALRGAKPINFGYLIKDAELKLVQSIKGSLRGSKLPPGHKGAHGRISKTNGSSGGPRKDPIILIPSAASSILTVANIKQFLLESKYVNPRNLPSVPNGLVNIEKNFERISRPIRFIIVDNTRMFTKPEYWDRVVAIFTTGHTWQFNNYQWNSPQELFQRCKGYYFHFAGDSVPQHVQQANVEKVELDKNKRFKDVEVVRYFWHSLEKELISRGYR [W357A],disrupting interaction
